Results as given in PMC10786891, “Massively parallel profiling of RNA-targeting CRISPR-Cas13d”.
Changes are numbered by the printed parent chain.

T1: EsCas13d, nuclease-dead (Eubacterium siraeum, UniProt B0MS50, R295A;H300A;R849A;H854A)
T1 sequence: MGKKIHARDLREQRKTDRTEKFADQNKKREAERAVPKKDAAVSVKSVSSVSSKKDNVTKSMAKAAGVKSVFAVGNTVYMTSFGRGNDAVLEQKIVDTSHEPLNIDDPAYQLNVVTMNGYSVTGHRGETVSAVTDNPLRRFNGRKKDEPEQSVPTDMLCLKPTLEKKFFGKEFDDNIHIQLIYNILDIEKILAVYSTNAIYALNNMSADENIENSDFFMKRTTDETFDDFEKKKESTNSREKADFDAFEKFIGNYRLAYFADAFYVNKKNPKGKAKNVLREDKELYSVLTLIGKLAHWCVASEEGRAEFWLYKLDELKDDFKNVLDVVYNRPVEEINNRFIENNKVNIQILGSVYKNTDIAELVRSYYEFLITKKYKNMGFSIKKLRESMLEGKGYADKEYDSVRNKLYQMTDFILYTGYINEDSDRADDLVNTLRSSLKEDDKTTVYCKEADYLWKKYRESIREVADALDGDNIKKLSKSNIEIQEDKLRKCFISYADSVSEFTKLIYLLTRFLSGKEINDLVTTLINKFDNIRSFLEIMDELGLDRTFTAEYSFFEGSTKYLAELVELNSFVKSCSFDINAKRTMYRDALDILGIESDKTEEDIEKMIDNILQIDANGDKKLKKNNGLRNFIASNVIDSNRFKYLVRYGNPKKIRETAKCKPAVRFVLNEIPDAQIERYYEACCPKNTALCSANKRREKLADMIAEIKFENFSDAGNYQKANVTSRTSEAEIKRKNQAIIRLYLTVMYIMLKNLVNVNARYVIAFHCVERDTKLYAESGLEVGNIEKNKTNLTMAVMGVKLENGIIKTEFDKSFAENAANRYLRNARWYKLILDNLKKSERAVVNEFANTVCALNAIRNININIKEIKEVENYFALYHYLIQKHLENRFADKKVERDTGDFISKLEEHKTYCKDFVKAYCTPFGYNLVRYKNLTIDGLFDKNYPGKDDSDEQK

B1: target 1 insC 3' of 22,insA 3' of 6 (mixed)
RNA 1: CACCCGUGCAAAAAUGCAGGGGUCUAAAACUGAGCGGAUAACCUCUCUAUGG
RNA 2: GGGAAUGGAUCCACAUCUACGAAUUCGUACCCAUAGAGAGGUUAUCCAGCUCACCGAGAUCGGAAGAGCACACGU
B2: target 2 MT 5'PFS AUC 3'PFS CUA (mixed)
RNA 1: CACCCGUGCAAAAUUGCAGGGGUCUAAAACCUUCUCCAAAUUGUUUCAUCCU
RNA 2: GGGAAUGGAUCCACAUCUACGAAUUCAUCAGGAUGAAACAAUUUGGAGAAGCUAAGAUCGGAAGAGCACACGU
B3: target 2 MT 5'PFS AGC 3'PFS ACA (mixed)
RNA 1: B2 RNA 1
RNA 2: B2 RNA 2 with U28G, C52A, U53C
B4: target 2 MT 5'PFS GUU 3'PFS ACG (mixed)
RNA 1: B2 RNA 1
RNA 2: B2 RNA 2 with A27G, C29U, C52A, U53C, A54G
B5: target 2 MT 5'PFS AGU 3'PFS CAC (mixed)
RNA 1: B2 RNA 1
RNA 2: B2 RNA 2 with U28G, C29U, U53A, A54C
B6: target 2 MT 5'PFS GUU 3'PFS ACC (mixed)
RNA 1: B2 RNA 1
RNA 2: B2 RNA 2 with A27G, C29U, C52A, U53C, A54C
B7: target 2 MT 5'PFS CGC 3'PFS UUA (mixed)
RNA 1: B2 RNA 1
RNA 2: B2 RNA 2 with A27C, U28G, C52U
B8: target 2 MT 5'PFS AGU 3'PFS CAG (mixed)
RNA 1: B2 RNA 1
RNA 2: B2 RNA 2 with U28G, C29U, U53A, A54G
B9: target 2 MT 5'PFS GUU 3'PFS ACA (mixed)
RNA 1: B2 RNA 1
RNA 2: B2 RNA 2 with A27G, C29U, C52A, U53C
B10: target 2 MT 5'PFS AUC 3'PFS CUU (mixed)
RNA 1: B2 RNA 1
RNA 2: B2 RNA 2 with A54U
B11: target 2 MT 5'PFS AUC 3'PFS CUC (mixed)
RNA 1: B2 RNA 1
RNA 2: B2 RNA 2 with A54C
B12: target 2 MT 5'PFS AGC 3'PFS ACG (mixed)
RNA 1: B2 RNA 1
RNA 2: B2 RNA 2 with U28G, C52A, U53C, A54G
B13: target 2 MT 5'PFS UAG 3'PFS UAG (mixed)
RNA 1: B2 RNA 1
RNA 2: B2 RNA 2 with A27U, U28A, C29G, C52U, U53A, A54G
B14: target 2 MT 5'PFS AGA 3'PFS CAA (mixed)
RNA 1: B2 RNA 1
RNA 2: B2 RNA 2 with U28G, C29A, U53A
B15: target 2 MT 5'PFS AGA 3'PFS CAC (mixed)
RNA 1: B2 RNA 1
RNA 2: B2 RNA 2 with U28G, C29A, U53A, A54C
B16: target 2 MT 5'PFS AGA 3'PFS CAG (mixed)
RNA 1: B2 RNA 1
RNA 2: B2 RNA 2 with U28G, C29A, U53A, A54G
B17: target 2 MT 5'PFS AAU 3'PFS UCA (mixed)
RNA 1: B2 RNA 1
RNA 2: B2 RNA 2 with U28A, C29U, C52U, U53C
B18: target 2 MT 5'PFS GUU 3'PFS ACU (mixed)
RNA 1: B2 RNA 1
RNA 2: B2 RNA 2 with A27G, C29U, C52A, U53C, A54U

Target: T1, EsCas13d, nuclease-dead
Experiment: crRNA (strand 1, pre-loaded); Mg2+; 40 mM Tris-HCl pH 7.5, 150 mM NaCl, 6 mM MgCl2, 1 mM DTT, 0.1% Tween-20, 0.2 mg/ml BSA; 25 C; 10 min per concentration, then washed
Conditions: tags: His6-TwinStrep-SUMO cleaved; N-terminal SNAP kept (SNAP-Surface 488); label: 3' end held by stalled T7 RNA polymerase

First: B1
Second: B2
The Kd of the first is 7-fold lower: 12.9 ± 0.9 nM for the first, ~90 nM for the second. The first binds more tightly here.

Going from B3 to B4, the Kd rises from 7.9 ± 3.2 nM to 17.5 ± 1.4 nM (2.2-fold).

B5 and B6 are within error of each other in Kd: 15 ± 5 nM for the first, 18.1 ± 3 nM for the second.

B7 and B8 are within error of each other in Kd: 11.1 ± 2.5 nM for the first, 14.2 ± 3.1 nM for the second.

First: B9
Second: B10
The Kd of the first is 5.1-fold lower: 17.5 ± 2.3 nM for the first, ~90 nM for the second.

Going from B11 to B12, the Kd falls from 66 ± 25 nM to 7.1 ± 0.9 nM (9.3-fold).

B13 and B14 are within error of each other in Kd: 3.7 ± 0.4 nM for the first, 3.5 ± 0.8 nM for the second.

B15 and B16 are within error of each other in Kd: 7.4 ± 1.6 nM for the first, 5.7 ± 0.8 nM for the second.

B17 and B18 are within 1.5-fold of each other in Kd: 10.4 ± 3.5 nM for the first, 15.5 ± 1 nM for the second.
